Blank lines part the entries; values can stand above or below the binder they belong to.
B2: DapF, diaminopimelate (DAP) epimerase, purified (enzyme, E. coli, UniProt P0A6K1 1-274, looked up)
chain: MQFSKMHGLGNDFMVVDAVTQNVFFSPELIRRLADRHLGVGFDQLLVVEPPYDPELDFHYRIFNADGSEVAQCGNGARCFARFVRLKGLTNKRDIRVSTANGRMVLTVTDDDLVRVNMGEPNFEPSAVPFRANKAEKTYIMRAAEQTILCGVVSMGNPHCVIQVDDVDTAAVETLGPVLESHERFPERANIGFMQVVKREHIRLRVYERGAGETQACGSGACAAVAVGIQQGLLAEEVRVELPGGRLDIAWKGPGHPLYMTGPAVHVYDGFIHL
notes: DapF, diaminopimelate epimerase, E. coli; The text sets 'purified DapF' (untagged) against His-DapF in the pull-downs; also called purified DapF; untagged DapF; source: purified
B3: RppH, RNA pyrophosphohydrolase, purified (enzyme, E. coli, UniProt P0A776 1-176, looked up)
chain: MIDDDGYRPNVGIVICNRQGQVMWARRFGQHSWQFPQGGINPGESAEQAMYRELFEEVGLSRKDVRILASTRNWLRYKLPKRLVRWDTKPVCIGQKQKWFLLQLVSGDAEINMQTSSTPEFDGWRWVSYWYPVRQVVSFKRDVYRRVMKEFASVVMSLQENTPKPQNASAYRRKRG
notes: RppH (NudH), RNA pyrophosphohydrolase, E. coli; Named only 'RppH' in gel filtration, SPR and the activity assays; The methods describe only the purification of His-RppH, so this may be the same protein as m1; also called purified RppH; NudH; source: purified

Assays:
[1] = target: T1, His-RppH co-expressed with DapF from pDuet-RD (E. coli, UniProt P0A776 1-176); assay: pull-down; DapF and His-RppH co-expressed from pDuet-RD in E. coli ER2566; crude extract loaded onto a TALON metal affinity column; SDS-PAGE; conditions: partners not purified
T1 construct: RppH (NudH), RNA pyrophosphohydrolase, E. coli; source: E. coli ER2566 harboring pDuet-RD (from the pET-duet vector), in crude extract
T1 sequence (looked up): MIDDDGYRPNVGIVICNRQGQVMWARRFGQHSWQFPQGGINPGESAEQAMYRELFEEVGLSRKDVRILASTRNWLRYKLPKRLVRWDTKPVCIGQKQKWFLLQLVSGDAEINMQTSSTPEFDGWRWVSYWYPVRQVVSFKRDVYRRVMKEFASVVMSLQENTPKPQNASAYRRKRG

[2] = target: the molecule itself; assay: SEC; Superose 12 10/300 GL, 50 mM Tris-HCl pH 8.0, 100 mM NaCl, room temperature, 0.5 ml/min; 50 μg RppH, 400 μg DapF (or 100 μg DapF(C73&217A)) or both in 250 μl, incubated 10 min on ice; fractions on SDS-PAGE
[3] = target: B3; assay: as above; conditions: both partners purified
[4] = target: T2, His6-RppH (6His-tagged form of RppH, RNA pyrophosphohydrolase) (E. coli, UniProt P0A776 1-176); assay: pull-down; purified DapF mixed with varying amounts of His-RppH or the control protein His-enzyme IIA^Ntr on the metal affinity resin; band intensities on gel; conditions: both partners purified
T2 construct: RppH (NudH), RNA pyrophosphohydrolase, E. coli; rppH gene amplified from MG1655 genomic DNA with primers at the ATG start codon and 20 bp downstream of the TAA stop codon; also called His-RppH; His-tagged RppH
T2 sequence (looked up): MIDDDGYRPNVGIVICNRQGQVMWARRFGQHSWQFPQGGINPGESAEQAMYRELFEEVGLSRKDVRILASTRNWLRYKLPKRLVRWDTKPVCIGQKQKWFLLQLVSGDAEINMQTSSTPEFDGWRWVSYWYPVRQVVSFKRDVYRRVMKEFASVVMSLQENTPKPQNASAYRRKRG

DapF(C73&217A) = target: T3, DapF(C73&217A) (E. coli, UniProt P0A6K1 1-274, C73&217A | C73&217A); assay: SEC; Superose 12 10/300 GL, 50 mM Tris-HCl pH 8.0, 100 mM NaCl, room temperature, 0.5 ml/min; 50 μg RppH, 400 μg DapF (or 100 μg DapF(C73&217A)) or both in 250 μl, incubated 10 min on ice; fractions on SDS-PAGE; conditions: both partners purified
T3 construct: DapF, diaminopimelate epimerase, E. coli; the two catalytic cysteines C73 and C217 substituted to alanine; The methods list His-DapF(C73&217A) among the purified proteins; results and legends call it DapF(C73&217A); also called His-DapF(C73&217A); mutant DapF
T3 sequence (looked up): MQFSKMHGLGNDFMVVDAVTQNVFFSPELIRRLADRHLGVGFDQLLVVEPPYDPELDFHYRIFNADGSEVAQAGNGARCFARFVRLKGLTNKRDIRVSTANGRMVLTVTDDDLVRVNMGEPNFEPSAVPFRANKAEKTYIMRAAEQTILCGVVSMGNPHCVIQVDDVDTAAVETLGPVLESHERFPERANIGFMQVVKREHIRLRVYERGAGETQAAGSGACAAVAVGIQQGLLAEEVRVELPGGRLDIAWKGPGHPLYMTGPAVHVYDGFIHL

[5] = target: B2; assay: SPR; BIAcore 3000; RppH amine-coupled to a CM5 chip (0.7 ng/mm^2); DapF at 20, 50 and 70 μg/ml flowed at 10 μl/min; 10 mM HEPES pH 7.2, 150 mM NaCl, 10 mM KCl, 1 mM MgCl2, 0.5 mM EDTA; fit assumes a dimer–dimer interaction; conditions: both partners purified

stoichiometry N [1]: 1 DapF:RppH
B1: DapF co-expressed with His-RppH from pDuet-RD (enzyme, E. coli, UniProt P0A6K1 1-274, looked up)
chain: MQFSKMHGLGNDFMVVDAVTQNVFFSPELIRRLADRHLGVGFDQLLVVEPPYDPELDFHYRIFNADGSEVAQCGNGARCFARFVRLKGLTNKRDIRVSTANGRMVLTVTDDDLVRVNMGEPNFEPSAVPFRANKAEKTYIMRAAEQTILCGVVSMGNPHCVIQVDDVDTAAVETLGPVLESHERFPERANIGFMQVVKREHIRLRVYERGAGETQACGSGACAAVAVGIQQGLLAEEVRVELPGGRLDIAWKGPGHPLYMTGPAVHVYDGFIHL
notes: DapF, diaminopimelate epimerase, E. coli; source: E. coli ER2566 harboring pDuet-RD (from the pET-duet vector), in crude extract

Binder: B2
stoichiometry N [2]: 2 | stoichiometry N [3]: 1 DapF:RppH (2:2) | stoichiometry N [4]: 1 DapF:RppH

Binder: B3
binding result (DapF(C73&217A)): binds | Kd [5]: ~5.2 nM
